The record followed here is the supplement of paper PMC12042874.

± gives the uncertainty stated by the source.

This data set in a line: amyloid nucleation score (Sup35N fusion, yeast selection) (log enrichment); library NNK1; higher = more nucleation; inactive = no reads after selection. The essentials:
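Growth for 7 days at 30°C on medium lacking adenine and uracil followed a 24-hour induction with 100 μM copper sulfate of psi-negative yeast expressing peptides of 20 random codons fused to Sup35N. Input and output plasmid inserts were sequenced with Illumina, and sequences with under 100 input reads were excluded. Nucleation score is the DiMSum log enrichment of output over input reads, centred on the mode score of non-aggregating sequences.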
With RGIAVWCTN, the amyloid nucleation score amounted to 0.286 ± 0.97.
Regarding EVGMHNMACADSSVCMRSVL, the amyloid nucleation score is 0.472 ± 0.6.
To SFIYTSPGFCWRDMFDWQVP belongs 0.339 ± 0.32; to TTSRAWFYL, -0.353 ± 1; to TKVGFFQRLGYEQVCNCKML, 0.244 ± 0.49.
To TSNNLFKRALVGDYNKVAYR belongs 0.572 ± 0.75; to RHGKASSSEWNAYRARDRGV, 0.761 ± 0.82; to LKYANLSMRYPWVKKYCKEN, -0.301 ± 0.51.
To ASFQFSSCMCSLYAVFSRLL belongs 0.759 ± 0.44; to GQFSRSCGTVHNQSVYRRCL, 1.5 ± 0.48.
With VGPAANHIGHIVRWCRPGGP, the amyloid nucleation score turned out to be 0.33 ± 0.5.
In turn, VILECNVAGVGELAQCQCAG returned an amyloid nucleation score of 0.986 ± 0.59.
With MRFYAMGRDVYICCDGNKIL the figure was 5.07 ± 0.066.
With PMTPTCPLTNASTCPSTDRR the figure was -0.644 ± 0.74.
Consider LLRFTCSILLRA, for which the amyloid nucleation score is 0.437 ± 0.79.
To ALSSAALEYNIPVGSGAFVN belongs 0.25 ± 1.4; to NFVFGHNGGACSYVGLLM, 1 ± 0.7.
With REDKYHIVVT the figure was -0.275 ± 0.28; with WNFLFSCLMLGSSWMACDWQ, -0.305 ± 0.76; with LWVSNSSIRLDRNINQTLAT, 0.019 ± 1.4.
To PLCEKSGCSLNFDEERQTLW belongs 1.43 ± 0.51; to VLGRITAIFSVCGLVAVRDN, 5.63 ± 0.076; to TFSWYRLRSVMGLVGNAAMI, 0.31 ± 0.61.
Turning to YAKVLTK, the amyloid nucleation score was -0.104 ± 0.33.
As to SLSWEAYRSLLS, the amyloid nucleation score stood at 1.1 ± 0.23.
To DKNVSRFIPNEMLCLKPWAP belongs 1.19 ± 0.9.
To RGYLMHMTVAKILSVVKKRA belongs -2.16 ± 2.7; to SVAFWSVCRVLGTDADMDRI, -0.254 ± 0.58; to ISFYTVRWLAAGRRFLISF, 0.224 ± 0.59.
Take AFPSVRSAFSYLVVPCTICT: the amyloid nucleation score worked out at 0.606 ± 0.53.
On to KAVYVVNGLFVHCVTR, for which the amyloid nucleation score was determined as 0.267 ± 0.21.
Consider VWIICQHGG, for which the amyloid nucleation score was 4.09 ± 0.11.
The substance LCRMFRIVAVGYMDQRCRT displayed an amyloid nucleation score of 0.479 ± 0.49.
On to SWSSKRNVWEHIVGESYEYF, for which the amyloid nucleation score result is “inactive”.
With NGVLYFD the figure was 0.371 ± 0.57.
As to FIWSLVGAQAQSTNRVHHLS, the amyloid nucleation score stood at 1.3 ± 0.67.
FRSFKNTY returned an amyloid nucleation score of -1.3 ± 0.45.
For GHTVVSSWALNFEYGFQLGY, the amyloid nucleation score was 0.05 ± 0.5.
FQLRNL gave an amyloid nucleation score of 0.414 ± 0.34.
To NSIVVTT belongs 0.114 ± 0.54.
To SCNVFGASWRLTVNDVWYKW belongs 0.651 ± 0.22.
In the case of DLFYYLRRLITRTWFM, the amyloid nucleation score turned out to be 1.05 ± 0.27.
With TFFCTYTYLWLICIIGQYYF the figure was 3.44 ± 0.11.
DQVTYRPWLRELRRQAMCLQ returned an amyloid nucleation score of 0.027 ± 1.7.
DATCLESLALSYKG came in with an amyloid nucleation score of -0.573 ± 0.41.
SDQDTGLHTLPCHTRS: the amyloid nucleation score entry was “inactive”.
To YVWIRIVVVLVRRMCNTDTQ belongs “inactive”; to CIFLM, 0.21 ± 0.48.
With IGTLFTSNSYFWYLVVG the figure was 2.51 ± 0.13.
To MSYCFF belongs 0.022 ± 0.55; to YCDRDLKNKVLSNV, -0.132 ± 0.42; to FNRKISFFCN, -0.393 ± 0.4.
On to TKWLLFLVRTRHVMMCGGVM, for which the amyloid nucleation score result was “inactive”.
Take CYELSGWGNSWVGNRSLGFV: the amyloid nucleation score was determined as 0.626 ± 0.46.
Turning to LNTFWKIRTNMSMGTWS, the amyloid nucleation score amounted to 0.79 ± 0.65.
ILFDSHANFVGMSCQYRSGR showed an amyloid nucleation score of 5.72 ± 0.1.
To LHIVMLVLMASMEQTVTS belongs -1.11 ± 2.4; to GVWGQFQVSILWRHKCDLSG, “inactive”.
For the substance ASRIHYWWS, the amyloid nucleation score is 0.787 ± 0.25.
IFVVGAGLHDKTNGYVYRSR displayed an amyloid nucleation score of 0.164 ± 0.24.
The substance INRTTRNLLSRCRWYNCYKR registered an amyloid nucleation score of 0.155 ± 1.
The substance YYFEVAVGQMSFTANVLVLS gave an amyloid nucleation score of 2.34 ± 0.28.
In the case of GLVFWNIYCRNFYLL, the amyloid nucleation score amounted to 6.83 ± 0.078.
As for TYSGYFVLAIISPRLDRLFT, the amyloid nucleation score is -1.1 ± 0.58.
Substance DLRNMKVNTQDVSFLSPRGG came in with an amyloid nucleation score of 0.208 ± 0.29.
The substance TPFVMIKDGKADFVILNVYH gave an amyloid nucleation score of 7.077 ± 0.055.
LRNAVFVDPSCNYYVFILRL returned an amyloid nucleation score of 3.72 ± 0.15.
With SGTDLRISNHAT the entry was “inactive”; with VVDVQALSWSRGADLSSW, 1.02 ± 0.68; with LYSLATIDNYMPWCQGSSGS, “inactive”.
To RFLVFC belongs “inactive”; to ALCYPLMDSRSSRSYVQTRR, 2.61 ± 0.12.
For the substance FVPVKFITIGSYVLHTGSLL, the amyloid nucleation score came to 0.834 ± 0.73.
In turn, YMKWTNDVNDTLDILFCVYL displayed an amyloid nucleation score of 3.84 ± 0.069.
As to SRGFDHITFF, the amyloid nucleation score was -0.677 ± 1.2.
On to DSADMLILILYAAVLLYTIF, for which the amyloid nucleation score was -0.278 ± 0.69.
To KSGDMWW belongs 0.087 ± 0.37; to WQLYIEYFE, 0.128 ± 0.36; to DLVYVSRLYISVNRYPSWFV, -0.462 ± 0.51.
SYDRNDFLGERSVGMH gave an amyloid nucleation score of 0.736 ± 0.36.
The substance LRWFPEAFNGAERESLASNL registered an amyloid nucleation score of -0.102 ± 0.52.
TAWHLSMNALGNSSLDFKGR: the amyloid nucleation score came to 1.51 ± 0.16.
In turn, SCVQRVLSIVNSFGRRSQTR returned an amyloid nucleation score of 0.269 ± 0.43.
The substance MSSHVTHAS registered an amyloid nucleation score of 0.495 ± 1.
On to CCVDGLLLIERHVSLQYHSA, for which the amyloid nucleation score came to 0.135 ± 0.63.
To ICGQLPISMGVLSIFWWFES belongs 0.331 ± 0.79.
With NVNHSPSGMARRGSHRYKNS the figure was -0.218 ± 0.34; with SCTVLWDKFDRLLWCSK, “inactive”.
To MVDSYWGWCAMK belongs 1.22 ± 0.61; to SWSRRDVYKEGLDGGMGEGA, -1.07 ± 1.3; to RGDLTPDARSYGPCSIHRWR, “inactive”.
In turn, GIKFNWENLARVLESNVFF came in with an amyloid nucleation score of 1.53 ± 0.46.
To MYISYLYFCYKRSMYFG belongs 0.718 ± 1.1; to FHLWHLIVYILALY, -0.955 ± 0.77; to SMGVMSCNMSWSSAWCVMCV, 0.289 ± 0.42.
To FSFYS belongs -0.44 ± 0.65.
With PDAFKSLLLERRAWIKFVSK the figure was 1.15 ± 0.7; with LDRMFSVVRNNVTTSVLSEK, 0.234 ± 0.32; with KKGLLIVVVAHSERYVVDIA, -0.547 ± 0.44.
The substance TATGGASETERTAVTMY displayed an amyloid nucleation score of -0.609 ± 1.9.
With INVWNLSWGNMIRAKNHLGV the figure was -0.107 ± 0.53.
For VINCNWKFSFFFALVNEGGV, the amyloid nucleation score was determined as 6.554 ± 0.048.
Turning to YGNKTYFAPR, the amyloid nucleation score was found to be 0.557 ± 0.51.
In turn, CDIVNKSTGGLSTRALKIVY gave an amyloid nucleation score of 0.051 ± 0.69.
In the case of AKMYLRTLYTSPLRLPLAPQ, the amyloid nucleation score was -0.333 ± 1.4.
Take VSMRN: the amyloid nucleation score was found to be 0.305 ± 0.21.
With NCAFVAS the figure was -0.019 ± 0.34; with KLLWSPYSGCVVYNIKVKGR, 3.67 ± 0.13; with YYASVTYFILYSHRIELVVR, 1 ± 0.65.
To RYDSVFVIS belongs -0.129 ± 1.2.
With PSPQWYGDDNVTSRWRLLAV the figure was 0.548 ± 0.28; with DMKDDRRSFTKGP, -0.103 ± 0.69; with QYSCGSYYLERSGNVSRRKS, -0.084 ± 1.6.
Take SGKLLISCVYSLENMC: the amyloid nucleation score was found to be 1.39 ± 0.72.
The substance ESTAQSEV displayed an amyloid nucleation score of -0.237 ± 0.42.
With SVYKVPVVYGINTRFYFSES the figure was 1.18 ± 0.33; with GLMLHCGGLCWLLVVV, -0.539 ± 0.41.
With LLLRSAAESRVSLDEEARGT the figure was 0.191 ± 0.64; with YFSVGSCNRYLHWTVQ, 5.06 ± 0.075; with NRPHTTYFFSFKSQF, 5.61 ± 0.063.
EMAFISYH showed an amyloid nucleation score of 0.4 ± 1.1.
With QAHLNLVSRIIIMWS the figure was 0.067 ± 0.79; with VVDVHVSFRCLFKMGV, 1.51 ± 0.4.
With VYYYVNTVCWSARFHVGSGR the figure was -0.561 ± 0.74.
With RVFLTSLEDRVHTLGQATNT the figure was 1.39 ± 0.5; with LSDFLRPLVLVFLSTLEVAM, 0.138 ± 0.35.
As to SRPHTVWDMC, the amyloid nucleation score came out at 0.245 ± 0.32.
In turn, SSIIILSNMLTYK showed an amyloid nucleation score of 3.61 ± 0.1.
Turning to FLPGQNAIFKTLLVCSTVKV, the amyloid nucleation score was -0.675 ± 1.2.
To SFLKVGFL belongs -0.399 ± 1.1.
The substance DVKCAVTLVL returned an amyloid nucleation score of -0.055 ± 0.6.
For the substance VCYAKTAVFSMCGFIWSR, the amyloid nucleation score stood at 0.163 ± 0.77.
WDALLPLPAEFAYRATTMHA had an amyloid nucleation score of 0.444 ± 1.1.
For SSDSLYTYDMDWAWAGTP, the amyloid nucleation score was 0.281 ± 0.38.
Substance GQSYRRNIMCTSFLWLGNRN had an amyloid nucleation score of 1.05 ± 0.53.
With GYSCRVIWNTNWTALFT the entry was “inactive”; with EDMTLMLNNFSPILAIGWWT, 1.25 ± 0.25.
To GVISAGYFAGYETKLLLKGD belongs 0.983 ± 0.97; to CRACSHMTKLLIGTFLLLDF, -0.325 ± 0.6.
RLCASYSKYETFVADARRDG yielded an amyloid nucleation score of 0.413 ± 0.19.
